Three molecules from publication PMC10907724, “Optineurin provides a mitophagy contact site for TBK1 activation” (The EMBO Journal, 2024) can be followed below.

The term Kd denotes the constant that tells how readily two partners part at equilibrium. High values mean lower affinity, low ones higher affinity.

In test [1] the target is T1, biotinylated OPTN (26–196 aa) (UniProt Q96CV9 26-196, NH2-GGG(Lys[Biotin])-CONH2 joined at the C-terminal sortase recognition sequence by Sortase 5Y).
T1 construct: also called Biotin-modified OPTN; not shown: GST, N-terminal, cleaved; His6, C-terminal, cleaved; biotin (GGGK-biotin), C-terminal, kept
T1 sequence (Q96CV9 26-196): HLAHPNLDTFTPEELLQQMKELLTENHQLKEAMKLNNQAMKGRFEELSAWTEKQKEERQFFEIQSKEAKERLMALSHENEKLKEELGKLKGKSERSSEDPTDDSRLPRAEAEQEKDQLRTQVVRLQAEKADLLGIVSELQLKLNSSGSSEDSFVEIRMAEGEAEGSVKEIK
Description: BLI; biotinylated OPTN (26–196 aa) immobilised on a streptavidin biosensor (Octet); monobody as analyte at various concentrations; 30 °C; 50 mM Hepes-KOH pH 7.5, 300 mM NaCl, 0.05% Tween 20, 0.1% PEG6000; association 600 s, dissociation 600 s; global fitting. The settings on record: both partners purified.

Test [2] addresses T2, OPTN (26–196 aa)-EGFP with E50K (UniProt Q96CV9 26-196, E50K).
T2 construct: source: E. coli BL21-CodonPlus(DE3)-RIL, purified (Ni-NTA); not shown: EGFP, C-terminal, kept
The experiment in a line: pull-down; recombinant GST-TBK1 (677–729 aa), OPTN (26–196 aa)-EGFP or EGFP alone, and monobodies, 4.5 μM each, with glutathione Sepharose in 50 mM Tris–HCl pH 7.5, 120 mM NaCl, 1 mM TCEP, 10% glycerol, 30 min at room temperature; washes with 0.1% Triton X-100; CBB staining. The conditions noted are these: both partners purified.

T2 sequence (Q96CV9 26-196 E50K): as the sequence (Q96CV9 26-196) above, with E25K counted along it

B1: recombinant OPTN monobody clone #3 (His6-tagged) (designed binder)
chain: VSDVPRDLEVVAATPTSLLISWDAPWWWDYGYMYYRITYGETGGNSPVQEFTVPGSKSTATISGLKPGVDYTITVYAWDVAEWVTKVATSWPISINYRT
As for B1, binding in test [1] was put at a Kd of 4.56 nM.

B2: GST-TBK1 (677–729 aa) (domain or fragment, UniProt Q9UHD2 677-729, looked up)
chain: YPSSNTLVEMTLGMKKLKEEMEGVVKELAENNHILERFGSLTMDGGLRNVDCL
notes: Plasmid pGEX6P1_opt-TBK1 (677–729aa); also called GST-tagged TBK1 (677–729 aa); GST-TBK chimera; source: E. coli BL21-CodonPlus(DE3)-RIL, purified (glutathione Sepharose); not shown: GST, N-terminal, kept
As for B2, the binding result in test [2] was “binds”.

B3: recombinant OPTN monobody clone #4 (His6-tagged) (designed binder)
chain: VSDVPRDLEVVAATPTSLLISWDAPWFWYFPYYYQEWYYRITYGETGGNSPVQEFTVPGSKSTATISGLKPGVDYTITVYAAMELKGIQEYRNPISINYRT
B3: the Kd in test [1] amounted to 6.19 nM.
